Assay results: the nanobody polyreactivity screen of Harvey et al. (2022)

Experiment: yeast display, Sf9 membrane polyspecificity reagent, FACS + sequencing; frameworks hold sequencing errors
In short: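 After 36–48 hours of galactose induction, yeast (Saccharomyces cerevisiae BJ5465) displaying a synthetic nanobody library were stained at 4 °C for 1 hour with 10% biotinylated, detergent-solubilized Sf9 membrane reagent. Streptavidin microbeads enriched the stained cells before FACS sorting into low and high (top ~1%) gates on anti-HA and streptavidin fluorescence. Each clone's polyreactivity label reflects its gate of origin.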

Sequence: QVQLVESGGGLVQAGGSLRLSCAASGFTFRYYAMGWYRQAPGKERELVAAISWSGGRTYYADSVKGRFTISRDNAKNTVYLQMNSLKPEDTAVYYCAADGYPYFYGDFDYWGQGTQVTVSS
- polyreactivity (PSR sort gate): high polyreactivity

Sequence: QVQLVESGGGLVQAGGSLRLSCAASGFTFRYYAMGWYRQAPGKERELVASISARGGITNYADSVKGRFTISRDNAKISVYLQMNSLKPEDTAVYYCAADVFSWYGEYDYWGQGTQVTVSS
- polyreactivity (PSR sort gate): high polyreactivity

Sequence: QVQLVESGGGLVQAGGSLRLSCAASGFTFRYYAMGWYRQAPGKERELVASISWSSGSTHYADSVKGRFTISRDNAKNTVYLQMNSLKPEDTAVYYCNARHRTSSMHYWGQGTQVTVSS
- polyreactivity (PSR sort gate): high polyreactivity

Sequence: QVQLVESGGGLVQAGGSLRLSCAASGFTFRYYAMGWYRQAPGKEREWVAGISSRGGSTYYADSVKGRFTISRDNAKNTVYLQMNSLKPEDSAVYYCATERFLLGLGYDYWGQGTQVTVSS
- polyreactivity (PSR sort gate): high polyreactivity

Sequence: QVQLVESGGGLVQAGGSLRLSCAASGFTFRYYTMGWYRQAPGKERELVAAITWSGGSTYYADSVKGRFTISRDNAKNTVYLQMNSLKPEDTAVYYCNAYPSYVSFDYWGQGTQVTVSS
- polyreactivity (PSR sort gate): high polyreactivity

Sequence: QVQLVESGGGLVQAGGSLRLSCAASGFTFRYYVMGWYRQAPGKERELVAAISQSGGSTYYADSVKGRFTISRDNAKNTVYLQMNSLKPEDTAVYYCAARLVKYFRPYDYWGQGTQVTVSS
- polyreactivity (PSR sort gate): high polyreactivity

Sequence: QVQLVESGGGLVQAGGSLRLSCAASGFTFSAYDMGWYRQAPGKERELVAAISYSGGSTYYADSVKGRFTISRDTAKNTVYLQMNSLKPEDTAVYYCAADGYYTDYWGQGTQVTVSS
- polyreactivity (PSR sort gate): high polyreactivity

Sequence: QVQLVESGGGLVQAGGSLRLSCAASGFTFSFYTMGWYRQAPGKERELVAAISRRGGSTYYADSVKGRFTISRDNAKNTVYLQMNSLKPEDTAVYYCATDHIPSVGVDYWGQGTQVTVSS
- polyreactivity (PSR sort gate): high polyreactivity

Sequence: QVQLVESGGGLVQAGGSLRLSCAASGFTFSHNPMGWYRQAPGKERELVATITRGGGNTYYADSVKGRCTISRDNAKNTVYLQMNSLKPEDTAVYYCSAERYKRMDYWGQGTQVTVSS
- polyreactivity (PSR sort gate): low polyreactivity

Sequence: QVQLVESGGGLVQAGGSLRLSCAASGFTFSHYAMGWYRQAPGKERELVAAITASGGNTYYADSVKGRFTISRDNAKNTVYLQMNSLKPEDTAVYYCNAVSLKFTRKYDYWGQGTQVTVSS
- polyreactivity (PSR sort gate): high polyreactivity

Sequence: QVQLVESGGGLVQAGGSLRLSCAASGFTFSKYAMLWYRQAPGKEREFVAAISSRGGRTYYADSVKGRFTISRDNAKNTVYLQMNSLKPEDTAVYYCAVDVHLVTEYDYWGQGTQVTVSS
- polyreactivity (PSR sort gate): high polyreactivity

Sequence: QVQLVESGGGLVQAGGSLRLSCAASGFTFSKYVMGWYRQAPGKERELVAAISKRGGSTYYADSVKGRFTISRDNAKNTVYLQMNSLKPEDTAVYYCAARYYLEPILEMDYWGQGTQVTVSS
- polyreactivity (PSR sort gate): high polyreactivity

Sequence: QVQLVESGGGLVQAGGSLRLSCAASGFTFSNYAMGWYRQAPGKERELVAAISFRTGRTYYADSVKWRFTISRDNAKNTVFLQMNILKPEDTAVYYCAVQPYHSYLHNYWGQGTQVTVSS
- polyreactivity (PSR sort gate): high polyreactivity

Sequence: QVQLVESGGGLVQAGGSLRLSCAASGFTFSNYTMGWYRQAPVKERELVARITTRGTSTYYADSVKGRFTISRDNAKNTVYLQMNSLKPEDTAVYYCNARARYPRGYEYDYWGQGTQVTVSS
- polyreactivity (PSR sort gate): high polyreactivity

Sequence: QVQLVESGGGLVQAGGSLRLSCAASGFTFSRNAMGWYRQAPGKERELVAAIDSGGSTDYADSVKGRFTISRDNAKNTVYLQMNSLKPEDSAVYYCAKASSATRYVQLRQDYDYWGQGTQVTVSS
- polyreactivity (PSR sort gate): low polyreactivity

Sequence: QVQLVESGGGLVQAGGSLRLSCAASGFTFSRNAMGWYRQAPGKERELVAAISSSGGSTYYADSVKGRFTISRDNAKNTVYLQMNSLKPEDTAVYYCNVDHWRRGRSDNYWGQGTQVTVSS
- polyreactivity (PSR sort gate): high polyreactivity

Sequence: QVQLVESGGGLVQAGGSLRLSCAASGFTFSRNTMGWYRPAPGKERELVAAIDSTGGSTYYADSVKGRFTISRDNAKNTVYLQMNSLKPEDTAVYYCATVLPDGRVWYEGYYWGQGTQVTVSS
- polyreactivity (PSR sort gate): low polyreactivity

Sequence: QVQLVESGGGLVQAGGSLRLSCAASGFTFSRNVMGWYRQAPGKERELVADITLSGASTYYADSVKGRFTISRDNAKNTVYLQMNSLKPEDTADYYCAADPYHWRWGWRHDYWGQGTQVTVSS
- polyreactivity (PSR sort gate): low polyreactivity

Sequence: QVQLVESGGGLVQAGGSLRLSCAASGFTFSRYAMGWYRQAPGKERELVAVISSSGSRTYYADSVKGRFTISRDNAKNTVYLQMNSLTPEDTAVYYCAAKSYTVTGYEYWGQGTQVTVSS
- polyreactivity (PSR sort gate): high polyreactivity

Sequence: QVQLVESGGGLVQAGGSLRLSCAASGFTFSSNAMGSYRQAPGKERELVAAISFNSTSTYYADSVKVRFTISRDNAKNTVYLQMNSLKPEDTAVYYCAADVPRVQSEPEYDYSGQGTQVTVSS
- polyreactivity (PSR sort gate): low polyreactivity

Sequence: QVQLVESGGGLVQAGGSLRLSCAASGFTFSSYAMGWSRQAPGKERELVAAISTRGGSTYYADSVKGRFTISRDNAKNTVYLQMNSLKPEDTAVYYCATGGRGGRRYEYWGQGTQVTVSS
- polyreactivity (PSR sort gate): low polyreactivity

Sequence: QVQLVESGGGLVQAGGSLRLSCAASGFTFSSYAMGWYRQAPGKERELVAAISTRGGSTYYADSVKGRFTISRDNAKNTVYLQMNSLKPEDTAVYYCATGGRGGRRYEYWGQGTQVTVSS
- polyreactivity (PSR sort gate): low polyreactivity

Sequence: QVQLVESGGGLVQAGGSLRLSCAASGFTFSSYAMGWYRQAPGKERELVAAISTRGGSTYYADSVKGRFTISRDNAKNTVYLQMNSLNPEDSAVYYCAAPVNTSGDEYGYWGQGTQVTVSS
- polyreactivity (PSR sort gate): low polyreactivity

Sequence: QVQLVESGGGLVQAGGSLRLSCAASGFTFSSYAMGWYRQAPGKERELVAAITWGGGRTYYADSVKGRFTISRDNAKNTVYLQINSLKPEDTAVYYCNVPQWVSIWRKNNYWGLGTQVTVSS
- polyreactivity (PSR sort gate): high polyreactivity

Sequence: QVQLVESGGGLVQAGGSLRLSCAASGFTFSTYAMGWYRQAPGKERELVAAISSGDSTYADSVKGRFTISRDNAKNTVYLQMNSLKPEDTAVYYCAAYVSVPYRNYYYWGQGTQVTVSS
- polyreactivity (PSR sort gate): high polyreactivity

Sequence: QVQLVESGGGLVQAGGSLRLSCAASGFTFSTYAMGWYRQAPGKERELVSAISFSGGSTYYADSVKGRFTISRDNAKNTVYLQMNSLKPEDTAVYYCARAYTKYFEIYFIYALLYGHWGQGTQVTVSS
- polyreactivity (PSR sort gate): low polyreactivity

Sequence: QVQLVESGGGLVQAGGSLRLSCAASGFTFSTYTMGWYRQAPGKERELVAAIRRSGDSTYYADSVKGRFTISRDNAKNTVYLQMNSLKPEDTAVYYCNAVRYRFERFDYWGQGTQVTVSS
- polyreactivity (PSR sort gate): high polyreactivity

Sequence: QVQLVESGGGLVQAGGSLRLSCAASGFTFSVNDMGWYRQAPGKERELVAGISRGDNTNYADSVKGRFTISRDNAKNTVYLQMNSLKPEDTAVYYCAADFSLGLYRSWFGDYDYWGQGTQVTVSS
- polyreactivity (PSR sort gate): low polyreactivity

Sequence: QVQLVESGGGLVQAGGSLRLSCAASGFTFSWYVMGWYRQAPGKERELVAAISSSGGSTYYADSVKGRFTISRDNAKNTVYLQMKSLKPEDTAVYYCSAGRPYGDGDYWGQGTQVTVSS
- polyreactivity (PSR sort gate): high polyreactivity

Sequence: QVQLVESGGGLVQAGGSLRLSCAASGFTFSYNAMGWYRQAPGKERELVAAISSTGTSTYYADSVKGRFTISRDNAKNTVYLQMISLKPEDTAVYYCNAYGYDGYYAGRHGYWGQGTQVTVSS
- polyreactivity (PSR sort gate): low polyreactivity

Sequence: QVQLVESGGGLVQAGGSLRLSCAASGFTFSYNAMGWYRQAPGKERELVAGISYGGGNTFYADSVKGRFTISRDNAKNTVYLQMNSLKPEDTAVYDCAAVNKSGTYVEYDYWGQGTQVTVSS
- polyreactivity (PSR sort gate): low polyreactivity

Sequence: QVQLVESGGGLVQAGGSLRLSCAASGFTFSYYAMGWYRQAPGKERELVAAITTSGGRTYYADSVKGRFTISRDNAKNTVYLQMNSLKPEDPAVYYCAATYPRYYSGEFDYWGQGTQVTVSS
- polyreactivity (PSR sort gate): high polyreactivity

Sequence: QVQLVESGGGLVQAGGSLRLSCAASGFTFSYYAMGWYRQAPGKERELVARISFSGTRTYYADSVKGRFTISRDNAKNTVYLQMNSLKPEDTAVYYCAARFGYVGITARYDYWGQGTQVTVSS
- polyreactivity (PSR sort gate): high polyreactivity

Sequence: QVQLVESGGGLVQAGGSLRLSCAASGFTFSYYAMGWYRQAPGKERELVASISRSGNTYYADSVKGRFTISRDNAKNTVYLQMNSLKPEDTAVYYCAAKRKSYYSYNFDYWGQGTQVTVSS
- polyreactivity (PSR sort gate): high polyreactivity

Sequence: QVQLVESGGGLVQAGGSLRLSCAASGFTFTAYAMGLYRKATGKERELVAGISRRGASTYYADSVKGRFTISRDYAKNTVYLQMNSLKPEDTAVYYCAALGKYIVAWSGDYWGQGTQVTVSS
- polyreactivity (PSR sort gate): low polyreactivity

Sequence: QVQLVESGGGLVQAGGSLRLSCAASGFTFTDYAMGWYRQAPGKERELVAAITKGGGRTYYADSVKGRFTISRDNAKNTVYLQMNSLKPEDTAVYYCNARYQVPYGYWGQGTQVTVSS
- polyreactivity (PSR sort gate): low polyreactivity

Sequence: QVQLVESGGGLVQAGGSLRLSCAASGFTFTENVMGWYRQAPGKEREFVAAITYIGGRTYYADSVKGRFTISRDNAKNSVYLQMNSLKPEDTAVYYCAADWAYYVASYLYYTFDYWGQGTQVTVSS
- polyreactivity (PSR sort gate): low polyreactivity

Sequence: QVQLVESGGGLVQAGGSLRLSCAASGFTFTENVMGWYRQAPGKEREFVAAITYIGGRTYYADSVKGRFTISRDNAKNTVYLQMNSLKPEDTAVYYCAADWAYYVASYLYYTFDYWGQGTQVTVSS
- polyreactivity (PSR sort gate): low polyreactivity

Sequence: QVQLVESGGGLVQAGGSLRLSCAASGFTFTGYAMGWYRQAPGKERELVAAISSSGGSTYYADSVKGRFTISRDNAKNTVYLQMNSLKPEDTAVYYCNARISDAHYQCNYFLVLYDYWGQGTQVTVSS
- polyreactivity (PSR sort gate): low polyreactivity

Sequence: QVQLVESGGGLVQAGGSLRLSCAASGFTFTIYAMGSNRPAPGKERELVATISGRAGRTYYADSVKGRFTISRDNAKNTVYLQMNSLKPEDPAVYYCTAGQRRYPGLSYYWGQGTQVTVSS
- polyreactivity (PSR sort gate): high polyreactivity

Sequence: QVQLVESGGGLVQAGGSLRLSCAASGFTFTLNTMGWYRQAPGKERELVAAISSGGRTYYADSVKGRFTISRDNAKNTVYLQMNSLKPEDTAVYYCAADYTWRFLRFGYWGQGTQVTVSS
- polyreactivity (PSR sort gate): high polyreactivity

Sequence: QVQLVESGGGLVQAGGSLRLSCAASGFTFTPNAMGWYRQAPGKERELVAAISGSGGSTYYADSVKGRFTISRDNAKNTVYLQMNSLKPEDTAVYYCAKRRGVYTHWYDYWGQGTQVTVSS
- polyreactivity (PSR sort gate): high polyreactivity

Sequence: QVQLVESGGGLVQAGGSLRLSCAASGFTFTPYAMGWYRQAPGKERELVAAITWRGGTYYADSVKGRFTISRDNAKNTVYLQMNSLKPEDTAVYYCAARVWRLYPSTYDYWGQGTQVTVSS
- polyreactivity (PSR sort gate): high polyreactivity
